In US20220204643A1 (published 2022):
Blank lines part the entries; values can stand above or below the binder they belong to.

Assays:
[1] = target: T1, killer cell lectin like receptor C1, transcript variant 3 (human, UniProt P26715 1-233)
T1 construct: also called KLRC1

[2] = target: T2, coiled-coil domain containing 74B, transcript variant 2 (human, UniProt Q96LY2 1-380)
T2 construct: also called CCDC74B

[3] = target: T3, Egf like and emi domain containing 1, pseudogene (human, UniProt Q0D2K5 1-195); experiment: protein array
T3 construct: on protein array; also called EGFEM1P
T3 sequence: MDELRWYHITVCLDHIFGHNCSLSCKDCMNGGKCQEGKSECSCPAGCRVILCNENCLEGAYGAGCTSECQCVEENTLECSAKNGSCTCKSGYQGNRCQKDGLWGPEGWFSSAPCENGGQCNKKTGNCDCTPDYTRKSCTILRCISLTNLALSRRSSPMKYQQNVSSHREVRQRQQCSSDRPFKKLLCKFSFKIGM

[4] = target: T4, oxidation resistance 1, transcript variant 1 (human, UniProt Q8N573 90-874, limits assumed)
T4 construct: also called OXR1
T4 sequence: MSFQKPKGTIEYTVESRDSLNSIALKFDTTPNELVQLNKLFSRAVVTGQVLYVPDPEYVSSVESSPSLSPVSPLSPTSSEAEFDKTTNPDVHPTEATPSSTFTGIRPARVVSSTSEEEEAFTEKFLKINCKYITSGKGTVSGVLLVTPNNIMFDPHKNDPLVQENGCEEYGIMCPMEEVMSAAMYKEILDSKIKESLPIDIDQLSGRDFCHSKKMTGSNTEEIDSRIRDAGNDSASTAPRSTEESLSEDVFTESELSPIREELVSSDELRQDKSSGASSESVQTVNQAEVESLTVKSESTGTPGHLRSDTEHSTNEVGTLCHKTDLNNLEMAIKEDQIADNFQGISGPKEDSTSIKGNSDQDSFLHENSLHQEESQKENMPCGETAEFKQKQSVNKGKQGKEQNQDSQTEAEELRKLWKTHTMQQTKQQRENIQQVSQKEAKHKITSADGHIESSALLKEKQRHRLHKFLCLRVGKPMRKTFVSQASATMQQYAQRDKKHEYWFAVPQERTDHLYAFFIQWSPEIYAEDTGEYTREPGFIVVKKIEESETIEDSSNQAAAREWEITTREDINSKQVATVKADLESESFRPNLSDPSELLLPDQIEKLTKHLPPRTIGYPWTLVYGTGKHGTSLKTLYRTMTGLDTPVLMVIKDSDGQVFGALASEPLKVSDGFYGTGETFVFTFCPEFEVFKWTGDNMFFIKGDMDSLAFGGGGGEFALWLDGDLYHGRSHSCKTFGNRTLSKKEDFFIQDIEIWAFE

[5] = target: T5, Kirre like nephrin family adhesion molecule 1 (human, UniProt Q96J84 17-757, limits assumed)
T5 sequence: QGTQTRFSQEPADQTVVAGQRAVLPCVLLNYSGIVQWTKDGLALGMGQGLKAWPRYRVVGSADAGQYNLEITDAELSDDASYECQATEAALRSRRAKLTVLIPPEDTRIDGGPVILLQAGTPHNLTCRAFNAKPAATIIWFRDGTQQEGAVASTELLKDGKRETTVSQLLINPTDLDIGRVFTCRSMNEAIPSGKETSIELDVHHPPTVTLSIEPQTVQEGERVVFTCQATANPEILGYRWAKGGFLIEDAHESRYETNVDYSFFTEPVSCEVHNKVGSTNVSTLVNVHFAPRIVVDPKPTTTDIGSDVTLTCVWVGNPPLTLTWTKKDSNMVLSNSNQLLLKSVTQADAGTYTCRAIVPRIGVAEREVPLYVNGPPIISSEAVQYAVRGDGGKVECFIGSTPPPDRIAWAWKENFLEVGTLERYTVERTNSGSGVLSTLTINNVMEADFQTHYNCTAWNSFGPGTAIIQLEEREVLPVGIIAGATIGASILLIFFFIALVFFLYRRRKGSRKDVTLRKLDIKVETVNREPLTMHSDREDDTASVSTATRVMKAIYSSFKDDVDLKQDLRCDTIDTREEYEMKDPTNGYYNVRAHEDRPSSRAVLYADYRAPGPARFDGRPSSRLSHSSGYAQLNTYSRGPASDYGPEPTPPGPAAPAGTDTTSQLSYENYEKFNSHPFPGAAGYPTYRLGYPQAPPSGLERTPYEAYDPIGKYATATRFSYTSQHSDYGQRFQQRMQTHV

[6] = target: T6, Ankyrin repeat domain 20 family member a5, pseudogene (human, UniProt A0PJZ0 1-165)
T6 construct: also called ANKRD20A5P

[7] = target: T7, GRB10 interacting GYF protein 1, transcript variant X10 (human, UniProt O75420 1-1035)
T7 construct: also called GIGYF1
T7 sequence: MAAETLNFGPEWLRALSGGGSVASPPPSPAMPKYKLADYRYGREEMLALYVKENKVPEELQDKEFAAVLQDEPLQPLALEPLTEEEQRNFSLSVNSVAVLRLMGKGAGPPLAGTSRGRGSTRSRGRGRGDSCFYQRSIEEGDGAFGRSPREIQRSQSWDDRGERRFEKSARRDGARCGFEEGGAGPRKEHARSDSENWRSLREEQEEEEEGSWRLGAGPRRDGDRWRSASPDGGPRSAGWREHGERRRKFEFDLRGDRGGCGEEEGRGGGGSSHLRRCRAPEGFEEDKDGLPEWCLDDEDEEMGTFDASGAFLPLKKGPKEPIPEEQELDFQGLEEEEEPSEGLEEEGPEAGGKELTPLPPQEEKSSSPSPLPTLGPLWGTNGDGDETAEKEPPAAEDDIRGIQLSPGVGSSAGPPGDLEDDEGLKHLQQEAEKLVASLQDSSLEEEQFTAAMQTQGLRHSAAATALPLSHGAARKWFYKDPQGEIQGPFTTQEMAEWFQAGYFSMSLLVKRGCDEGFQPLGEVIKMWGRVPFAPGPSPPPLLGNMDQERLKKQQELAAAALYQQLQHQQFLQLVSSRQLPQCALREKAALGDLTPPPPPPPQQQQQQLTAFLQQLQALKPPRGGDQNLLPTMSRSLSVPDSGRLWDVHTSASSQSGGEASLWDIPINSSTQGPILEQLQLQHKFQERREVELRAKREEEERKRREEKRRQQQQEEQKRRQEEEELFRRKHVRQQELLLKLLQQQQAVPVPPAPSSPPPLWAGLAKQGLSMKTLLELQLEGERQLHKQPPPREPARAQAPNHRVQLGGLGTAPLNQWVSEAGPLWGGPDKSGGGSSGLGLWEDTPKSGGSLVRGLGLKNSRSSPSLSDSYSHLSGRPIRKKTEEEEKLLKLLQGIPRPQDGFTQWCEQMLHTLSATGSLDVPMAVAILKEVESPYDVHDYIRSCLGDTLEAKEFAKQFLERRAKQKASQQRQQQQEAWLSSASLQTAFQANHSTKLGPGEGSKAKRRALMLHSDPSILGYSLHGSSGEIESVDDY

[8] = target: T8, neural retina leucine zipper, transcript variant X4 (human, UniProt P54845 1-237)
T8 construct: also called NRL

F-box protein 2 = target: T9, F-box protein 2 (human, UniProt Q9UK22 1-296)
T9 construct: also called FBXO2
T9 sequence: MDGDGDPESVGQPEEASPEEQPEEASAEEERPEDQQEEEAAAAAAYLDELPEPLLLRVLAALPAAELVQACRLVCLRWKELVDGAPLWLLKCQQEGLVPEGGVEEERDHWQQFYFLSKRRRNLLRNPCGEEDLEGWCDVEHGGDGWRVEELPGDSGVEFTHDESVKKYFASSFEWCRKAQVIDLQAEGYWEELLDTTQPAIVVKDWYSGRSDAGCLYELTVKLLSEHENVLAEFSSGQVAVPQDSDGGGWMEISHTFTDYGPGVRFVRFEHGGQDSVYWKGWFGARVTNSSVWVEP

tubulin gamma 1 = target: T10, tubulin gamma 1 (human, UniProt P23258 1-451)
T10 construct: also called TUBG1
T10 sequence (P23258 whole entry): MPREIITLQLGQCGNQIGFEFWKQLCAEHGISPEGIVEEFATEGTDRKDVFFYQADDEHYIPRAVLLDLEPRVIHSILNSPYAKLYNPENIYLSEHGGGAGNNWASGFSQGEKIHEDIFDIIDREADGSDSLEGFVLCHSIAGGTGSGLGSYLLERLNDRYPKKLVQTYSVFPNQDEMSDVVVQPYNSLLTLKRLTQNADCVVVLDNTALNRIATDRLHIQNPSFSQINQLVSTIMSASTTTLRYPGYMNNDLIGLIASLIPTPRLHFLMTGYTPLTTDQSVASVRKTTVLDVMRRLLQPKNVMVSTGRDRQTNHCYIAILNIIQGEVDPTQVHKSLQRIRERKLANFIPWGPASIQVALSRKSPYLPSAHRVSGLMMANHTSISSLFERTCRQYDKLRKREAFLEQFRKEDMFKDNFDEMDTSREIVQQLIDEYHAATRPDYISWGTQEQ

T1 sequence (P26715 other isoform, or with tags, fused parts or gaps mutant limits assumed): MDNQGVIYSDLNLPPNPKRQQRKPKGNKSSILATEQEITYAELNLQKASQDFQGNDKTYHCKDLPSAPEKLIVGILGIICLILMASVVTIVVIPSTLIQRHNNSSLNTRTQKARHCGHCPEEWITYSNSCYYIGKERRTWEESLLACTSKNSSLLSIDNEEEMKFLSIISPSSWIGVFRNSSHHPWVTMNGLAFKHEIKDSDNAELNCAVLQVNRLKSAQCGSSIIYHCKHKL
T2 sequence (Q96LY2 other isoform, or with tags, fused parts or gaps mutant limits assumed): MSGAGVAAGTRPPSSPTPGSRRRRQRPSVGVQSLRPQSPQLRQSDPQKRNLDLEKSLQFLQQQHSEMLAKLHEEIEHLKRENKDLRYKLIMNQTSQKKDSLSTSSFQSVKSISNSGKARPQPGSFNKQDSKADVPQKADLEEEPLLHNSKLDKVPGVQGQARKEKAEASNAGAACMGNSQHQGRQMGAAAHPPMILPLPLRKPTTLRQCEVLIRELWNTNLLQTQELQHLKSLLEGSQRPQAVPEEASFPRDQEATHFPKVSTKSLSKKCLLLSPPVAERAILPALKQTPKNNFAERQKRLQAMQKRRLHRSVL
T6 sequence (A0PJZ0 whole entry, the tested form may be a part): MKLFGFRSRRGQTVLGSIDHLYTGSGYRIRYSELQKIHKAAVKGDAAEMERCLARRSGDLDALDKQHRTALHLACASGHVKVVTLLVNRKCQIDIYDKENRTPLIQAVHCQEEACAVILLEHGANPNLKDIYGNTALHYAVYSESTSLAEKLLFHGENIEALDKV
T8 sequence (P54845 whole entry, change not shown): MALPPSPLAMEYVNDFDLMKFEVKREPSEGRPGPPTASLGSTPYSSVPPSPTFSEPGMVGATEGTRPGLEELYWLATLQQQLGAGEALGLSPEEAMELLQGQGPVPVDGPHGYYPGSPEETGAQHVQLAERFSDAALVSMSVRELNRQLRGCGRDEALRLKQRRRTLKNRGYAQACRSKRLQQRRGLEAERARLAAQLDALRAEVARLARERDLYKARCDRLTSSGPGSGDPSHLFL

B1: TREC1003 (antibody, V domains shown)
VH: QVQLVQSGSEVKKPGASVRLACKTSGYTFSNYGVSWVRQGPGRGLEWLGWISGYNGRTHSADKFRDRVTLTTDTSTTTVYVDLKNLTSDDTAVYYCARVGTSHWYSDSWGQGTLVTVSS
VL: QSVLTQPPSVSGAPGQRVTISCAGSYSNIGAGYDVHWYRQLPGTAPTLLIYSNNNRPSGVSDRFSGSKSGTSASLAITGLQAEDEADYYCQSFDSSLSRSVFGTGTKVTVL
- binding result [1]: binds

B5: TPRO1002 (antibody, V domains shown)
VH: EVQLVESGGGVIKPGGSLKLSCEGSGFTLDDYVMHWVRQAPGKGLEWISSISGDGTRTYYADSVKGRFTISRNNGKNSLYLQMDSLRREDTALYYCAKDARLAYYGMDVWGQGTTVTVSS
VL: QSALTQPASVSGSPGQSITISCTGTSSDIGGYDLVSWYQHHPGKAPKLVISEGSKRPSGVSNRFFGSKSGNTASLTISGLQAEDEADYYCCSFTGTSTFVFGTGTKVTVL
- binding result [5]: binds
- binding result [6]: binds
- binding result [7]: binds

B6: TSAR1001 (antibody, V domains shown)
VH: EVQLVESGGGMVQPGESLRLSCAASGFDFTSYWMAWVRQAPGKGLEWVANMNADGSEKHYVDSVKGRFSISRDNAKKLLFLQMNSLTVDDTGVYYCARDEGRREGAWGQGTQVIVSA
VL: EIVLTQSPATLSFSPGDRATLSCRASQNINRFLAWYQQKPGQTPRLLIYDASTRATGIPARFSGSGSGTDFSLIISSLEPEDFAIYYCQQRNNWPITFGPGTKVDVK
- binding result [8]: binds

Results, then the binder that gave them:

- binding result [2]: binds
B2: TSAR1003 (antibody, V domains shown)
VH: QLQLQESGPGLVKPSETLSLTCTVSGVSIGTSSYYWGWIRQPPAKGLEWIGSIYYSGSTYYNPSLKNRVTISVDTSKNHFSLKLSSVTAADTAVYYCARHRTGQYYYNSWGQGTLVTVSS
VL: SSELTQDPAVSVALGQTVRITCQGDSLRTDYATWYQQKPGQAPILVFYGEDNRPSGIPDRFSGSSSGNTASLTITGAQAEDEADYYCNSRDSSGHHWVFGGGTKLTVL

- binding result [3]: binds
B3: TBRE1036 (antibody, V domains shown)
VH: QVQLVESGGGVVQPGRSLRLSCAASGFTFSSYAMHWVRQAPGKGLEWVAVISYDGSNKYYADSLKGRFTISRDNSKDTLYLQVNSLRPEDTAVYYCARVNIAAAGTLDYWGQGTLVTVSS
VL: EIVLTQSPGTLSLSPGERATLSCRASQSVSSRYLAWYQQKPGQAPRLLIHGASSRATGIPDRFSGSGSGTDFTLTISRLEPEDFAVYYCQQYGSAWTFGQGTKVEIKR
notes: VH/VL only

- binding result [4]: binds
B4: TPRO1001 (antibody, V domains shown)
VH: EVQLVQSGAEVKKPGESLRISCKGSGYSFTSFWISWVRQMPGKGLEWMGRIDPSDSYTNYSPSFQGHVTISADKSISTAFLQWSSLKASDTAMYYCARHQQKYSPISPLDYWGQGTLVTVSS
VL: QSALTQPASVSGSPGQSITISCTGTSSDVGGYNYVSWYQQHPGKAPKLMIYDVSNRPSGVSNRFSGSKSGNTASLTISGLQAEDEADYYCSSYTSSSSLVFGGGTKVTVLG

- binding result (F-box protein 2): binds
- binding result (tubulin gamma 1): binds
B7: TPAN1007 (antibody, V domains shown)
VH: PVQLVQSGAEVKKPGESLKISCQGSGYNFSRYWIGWVRQMPGKGLEWMGVVFPGDSDIRYSLSFQGHITIYADNSISTAYLQWSSLKASDTAIYYCATTSTMPMPTRGRDWFDPWGQGTLVTVSS
VL: PSVLTQPPSVSGAPGQRVTISCTGSSSNIGAGYDVHWYQQLPGTAPKLLIYANTNRPSGVPDRFSGSKSGTSASLAITGLQAEDEADYYCQSYDNSLSGGVFGGGTKLTVLG
